Measured values published in PMC4949121 (Inorganic chemistry, 2016).

Tests used:
[1] = system: VLA-4-overexpressing B16F10 mouse melanoma cells; test: Cell internalization assay; format: cell-based; details: 10 pmol per well
[2] = system: C57BL/6 mice bearing B16F10 xenografts
in vivo [3] = details: female, C57BL/6, mouse, iv, total radioactivity
in vivo [4] = details: female, C57BL/6, mouse, tumor and muscle, iv, total radioactivity

SMILES: Cc1ccccc1NC(=O)Nc1ccc(CC(=O)N[C@@H](CCCCNC(=O)/C=C/c2cccnc2)C(=O)N[C@@H](CCCC(=O)O)C(=O)NC2(C(=O)NCCOCCOCCOCCOCC(=O)N[C@@H](CCCCNC(=S)Nc3ccc(CCCN(CCN4CCN(CC(=O)O)CCN(CC(=O)O)CC4)CC(=O)O)cc3)C(N)=O)CCCCC2)cc1 [^64Cu-NE3TA-PEG4-LLP2A, metal not drawn]
- time at which internalization became saturated ([1]; time points 15 min, 1 h, 2 h, 4 h): ~ 2 h
- specific internalization (total minus blocked) ([1]; up to 4 h, blocking with unlabeled LLP2A-PEG4 10 μg per well): High specific internalization
- liver and kidney uptake ([2]; biodistribution): relatively low
- uptake in tumor, spleen, bone, lung, and thymus with blocking ([2]; coinjection of excess unlabeled LLP2A-PEG4 (100 μg)): significantly reduced
- tissue to tissue ratio at 4 h (in vivo [3]; tumor and blood): 16.8 ± 1.8
- tissue to tissue ratio at 24 h (in vivo [3]; tumor and muscle): 25.2 ± 7.8
- tissue to tissue ratio at 2 h (in vivo [4]): 13.1 ± 2.4
- tissue to tissue ratio at 4 h (in vivo [4]): 30.9 ± 0.7
